Test results reported in US20230116446A1 (QILU PUGET SOUND BIOTHERAPEUTICS, published 2023).

T1: human Claudin 18 splice variant 2 (hCLDN18.2) (human, UniProt P56856-2 1-261)
T1 construct: whole, on cells; Tetra-spanning membrane protein; tested only on cells
T1 sequence (looked up): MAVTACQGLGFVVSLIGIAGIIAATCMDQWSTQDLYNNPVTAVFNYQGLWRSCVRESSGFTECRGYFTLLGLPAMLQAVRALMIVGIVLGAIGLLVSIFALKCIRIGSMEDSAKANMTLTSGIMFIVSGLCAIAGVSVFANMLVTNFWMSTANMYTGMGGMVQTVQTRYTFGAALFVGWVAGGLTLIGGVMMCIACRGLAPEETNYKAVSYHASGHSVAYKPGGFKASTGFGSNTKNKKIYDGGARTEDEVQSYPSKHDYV

B1: anti-hSIRPα×anti-hCLDN18.2 bispecific antibody (bispecific antibody, human IgG1, kappa)
heavy 1: EVQLVESGGGLVKPGGSLRLSCAASGFTFSSYVMSWVRQTPGKGLEWVATISSGGTYTYYPDSVKGRFTLSRDNAKNSLYLQMNSLRAEDTAVYYCASQLTGSEFDYWGQGTTVTVSSASTKGPSVFPLAPSSKSTSGGTAALGCLVKDYFPEPVTVSWNSGALTSGVHTFPAVLQSSGLYSLSSVVTVPSSSLGTQTYICNVNHKPSNTKVDKKVEPKSCDKTHTCPPCPAPELLGGPSVFLFPPKPKDTLMISRTPEVTCVVVDVSHEDPEVKFNWYVDGVEVHNAKTKPREEQYNSTYRVVSVLTVLHQDWLNGKEYKCKVSNKALPAPIEKTISKAKGQPREPQVYTLPPCREEMTKNQVKLTCLVKGFYPSDIAVEWESNGQPENPYKTTPPVLDKDGSFFLYSKLTVDKSRWQQGNVFSCSVMHEALHNHYTQKSLSLSPGK
light 1: DIVLTQSPASLAVSLGERATISCRASESVDLYGTSFMHWYQQKPGQPPKLLIYRASNLESGVPDRFSGSGSRTDFTLTINPLQAEDVATYYCHQSSDELPWTFGGGTKVEIKRTVAAPSVFIFPPSDEQLKSGTASVVCLLNNFYPREAKVQWKVDNALQSGNSQESVTEQDSKDSTYSLSSTLTLSKADYEKHKVYACEVTHQGLSSPVTKSFNRGEC
heavy 2: QVQLVQSGAEVKKPGSSVKVSCKASGYTLTGYWIEWLRQRPGQGLEWMGEILLGSGSIKYNVKFKDRVTITADESTSTAYMELSSLRSEDTAVYYCARKGLRGNSFDYWGQGTLVTVSSASTKGPSVFPLAPSSKSTSGGTAALGCLVDDYFPEPVTVSWNSGALTSGVHTCPACLQSSGLYSLSSVVTVPSSSLGTQTYICNVNHKPSNTKVDKKVEPKSGDKTHTCPPCPAPELLGGPSVFLFPPKPKDTLMISRTPEVTCVVVDVSHEDPEVKFNWYVDGVEVHNAKTKPREEQYNSTYRVVSVLTVLHQDWLNGKEYKCKVSNKALPAPIEKTISKAKGQPREPQVCTLPPSREEMTKNQVDLTCLVDGFYPSDIAVEWESNGQPENDYGTTPPVLDDDGSFFLYSKLTVDKSRWQQGNVFSCSVMHEALHNHYTQKSLSLSPGK
light 2: DIVMTQSPSSLTVSLGEKATISCKSSQSLLNAGNQKSYLTWYQQKPGQPPKRLIYWASTRESGVPDRFSGSGSGTDFTLTISSLQAEDLAVYYCQNDYYYPFTFGQGTKVEIKRTVAAPSVFIFPPSDEQLKSGTAKVVCLLNNFYPREAKVQWKVDNALQSGNSCECVTEQDSKDSTYSLSSTLTLSKADYEKHKVYACEVTHQGLSSPVTKSFNRGES
notes: Four-chain heterodimeric IgG, one Fab arm for each target; made in ExpiCHO cells and purified on protein A; also called anti-hCLDN18.2×hSIRPα bispecific antibody; anti-hSIRPα×hCLDN18.2
B2: parental anti-hSIRPα #24 IgG antibody (antibody, V domains shown)
VH: EVQLVESGGGLVKPGGSLRLSCAASGFTFSSYVMSWVRQTPGKGLEWVATISSGGTYTYYPDSVKGRFTLSRDNAKNSLYLQMNSLRAEDTAVYYCASQLTGSEFDYWGQGTTVTVSS
VL: DIVLTQSPASLAVSLGERATISCRASESVDLYGTSFMHWYQQKPGQPPKLLIYRASNLESGVPDRFSGSGSRTDFTLTINPLQAEDVATYYCHQSSDELPWTFGGGTKVEIKR
notes: Bivalent parental IgG; also called anti-SIRPα mAb; anti-hSIRPα clone #24 IgG (WT)
B3: parental anti-hCLDN18.2 59F9E1 IgG1 antibody (antibody, V domains shown)
VH: QVQLVQSGAEVKKPGSSVKVSCKASGYTLTGYWIEWLRQRPGQGLEWMGEILLGSGSIKYNVKFKDRVTITADESTSTAYMELSSLRSEDTAVYYCARKGLRGNSFDYWGQGTLVTVSS
VL: DIVMTQSPSSLTVSLGEKATISCKSSQSLLNSGNQKSYLTWYQQKPGQPPKRLIYWASTRESGVPDRFSGSGSGTDFTLTISSLQAEDLAVYYCQNDYYYPFTFGQGTKVEIKR
notes: Humanized IgG1 with two Fab arms; also called aCLDN18.2; anti-hCLDN18.2 clone 59F9E1 IgG1 (WT)

Experiments:
[1] = target: T1, human Claudin 18 splice variant 2 …; assay: flow cytometry on Expi293 cells stably expressing hCLDN18.2, APC anti-human IgG detection, gMFI
Method: Cells stably expressing hCLDN18.2 were spun down at 1500 rpm at room temperature for 5 minutes and resuspended in 1×PBS/1% BSA (washing buffer), antibodies at a 1:3 series dilution ranging from 100 nM to 24 pM were added, cells were incubated at RT with shaking for 1 hour. […] Three additional washes were performed to get rid of unbound antibodies, treated samples were run on an LSRII flow cytometer (BD Biosciences) and signal intensity was determined using the geometric MFI of APC using Flow Jo software (BD Biosciences). Curve fitting and EC₅₀ values were obtained using GraphPad Prism 6 software.

[2] = target: T1, human Claudin 18 splice variant 2 …; assay: cell-based or functional assay
[3] = target: human SIRPα on monocyte-derived macrophages (human, UniProt P78324 31-504); assay: cell-based or functional assay
human SIRPα on monocyte-derived macrophages, sequence (P78324 31-504): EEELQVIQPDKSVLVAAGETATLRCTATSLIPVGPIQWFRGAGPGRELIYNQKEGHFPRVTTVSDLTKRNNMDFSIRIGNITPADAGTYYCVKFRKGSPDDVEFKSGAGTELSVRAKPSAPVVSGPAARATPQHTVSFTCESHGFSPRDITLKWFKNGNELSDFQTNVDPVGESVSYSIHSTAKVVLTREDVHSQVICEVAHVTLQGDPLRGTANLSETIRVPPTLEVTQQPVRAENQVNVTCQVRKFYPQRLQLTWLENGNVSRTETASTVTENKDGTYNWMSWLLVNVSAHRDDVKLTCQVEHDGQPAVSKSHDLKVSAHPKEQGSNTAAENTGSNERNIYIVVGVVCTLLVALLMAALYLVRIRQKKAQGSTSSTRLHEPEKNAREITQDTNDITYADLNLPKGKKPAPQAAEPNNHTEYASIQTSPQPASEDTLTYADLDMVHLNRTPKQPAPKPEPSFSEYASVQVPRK

[4] = target: T2, His6 tagged soluble monomeric extracellular domain (ECD) of hSIRPα v2 (human); assay: SPR (Biacore T200), antibody captured by anti-human Fc on CM5 chip, monomeric antigen as analyte, 1:1 model
T2 construct: extracellular domain; Made by transient transfection in Expi293 cells; used as monomeric analyte in Biacore; also called huSIRPαv2; huSIRPα-v2
Method: (§1) The experiment is described in Example 8. Antibodies were captured to the CM5 chip surface on which goat anti-human polyclonal antibody (Fc specific) was immobilized. Monomeric huSIRPα-v1 and huSIRPα-v2 were used as analytes and were injected for a 2-minute association period followed by a 5-minute dissociation period. Each concentration was run in duplicates. For human SIRPα v1 the incremental concentrations used are 3.13, 6.25, 12.5, 25, 50, 100, […]; For human SIRPα v2 the incremental concentrations used are 0.78, 1.56, 3.13, 6.25, 12.5, or 25 nM. At the end of each analyte injection, the chip was either regenerated with 10 mM glycine-HC1, pH 1.5 (Panels A-D) for multi-cycle kinetics or not regenerated (Panels E-H) for single-cycle kinetics. Data were evaluated using the Biacore T200 Evaluation Software, version 3.2. Data was double referenced then fit with a 1:1 binding model. Panels A and E indicate the binding of anti-hSIRPα×anti-hCLDN18.2 bispecific antibody to hSIRPα v1, panels B and F indicate the binding of anti-hSIRPα #24 IgG antibody to hSIRPα v1, panels C and G indicate the binding of anti-hSIRPα×anti-hCLDN18.2 bispecific antibody to human SIRPα v2, panels D and H indicate the binding of anti-hSIRPα #24 IgG antibody to human SIRPα v2. The x-axis represents the time (seconds), the y-axis represents the RU (Response Units).
(§2) The His6 tagged soluble monomeric extracellular domain (ECD) of hSIRPα v1 and v2 were made by transient transfection in Expi293 cells. Kinetic analysis was performed using surface plasmon resonance (T200, Cytiva) to compare the binding of the anti-hSIRPα×anti-hCLDN18.2 bispecific antibody (SEQ ID NOs:70 and 74) and the parental anti-hSIRPα #24 IgG antibody (SEQ ID NOs:68 and 74) to antigens hSIRPα v1 and hSIRPα v2 (FIG. 15). Either antibody was captured to the CM5 chip surface (Cytiva) by the immobilized goat-anti-human Fc polyclonal antibody, monomeric antigen hSIRPα v1 or v2 was sequentially injected at 6 different concentrations: huSIRPα v1 at 3.13, 6.25, 12.5, 25, 50, 100 nM while hSIPRα v2 at […] with regeneration by 10 mM Glycine-HCl pH1.5 (FIG. 15, panels A-D) for multi-cycle kinetics or without regeneration (FIG. 15, panels E-H) for single-cycle kinetics.

[5] = target: T3, His6 tagged soluble monomeric extracellular domain (ECD) of hSIRPα v1 (human, UniProt P78324 31-373); assay: as above
T3 construct: extracellular domain; Made by transient transfection in Expi293 cells; used as monomeric analyte in Biacore; also called huSIRPαv1; huSIRPα-v1; not shown: His6 tag
T3 sequence (P78324 31-373): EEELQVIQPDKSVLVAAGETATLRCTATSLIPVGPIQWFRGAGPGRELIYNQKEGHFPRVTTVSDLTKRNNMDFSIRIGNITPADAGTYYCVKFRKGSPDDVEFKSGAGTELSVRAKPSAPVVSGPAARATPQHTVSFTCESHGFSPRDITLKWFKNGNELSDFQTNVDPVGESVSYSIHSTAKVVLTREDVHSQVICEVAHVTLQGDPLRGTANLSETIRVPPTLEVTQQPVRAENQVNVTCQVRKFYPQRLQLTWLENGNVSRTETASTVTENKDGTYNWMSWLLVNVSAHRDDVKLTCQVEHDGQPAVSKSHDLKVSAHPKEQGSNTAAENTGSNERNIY
Method: as §1, §2

Binder	EC50 [1]	EC50, ADCP killing of PaTu 8988s cells by monocyte-derived macrophages [2]	EC50, ADCP killing of PaTu 8988s cells by monocyte-derived macrophages [3]	Kd [4]	koff [4]	kon [4]	Kd [5]	koff [5]	kon [5]
B1	16.9 nM	0.172 nM	0.172 nM	0.88 nM	0.00104 s⁻¹	1.18e+06 M⁻¹ s⁻¹	23.2 nM	0.00732 s⁻¹	329000 M⁻¹ s⁻¹
B2				0.908 nM	0.00109 s⁻¹	1.21e+06 M⁻¹ s⁻¹	22.3 nM	0.0077 s⁻¹	346000 M⁻¹ s⁻¹
B3	4.52 nM								
